Data reported in paper PMC4557955.

Tested on: BPs gp33103 repressor (short, prophage-encoded form) (Mycobacteriophage BPs)
Assay: EMSA
Conditions: EMSA: 20 mM Tris pH 7.5, 10 mM EDTA, 25 mM NaCl, 10 mM spermidine, 1 mM DTT, 1 ug calf thymus DNA in 10 ul, room temperature 30 min, 5% native gel …

Substance | Kd
GCATCACGGACGCTGCTATCCGACATATGTCGTGGATGATCGGGATATGGCC (double strand) [O27-R] | 11 µM
GCATTTTCCAATAGACCGCATATGTCGCTATGTTGGTGCACA (double strand) [O27-L] | 38.5 µM
GCATTTTCCAATAGACGACATATGTGCCTATGTTGGTGCACA (double strand) [O61-R] | 19.5 µM
26-27 intergenic region (O27) | 0.9 µM
CAAACGCAAAAGTTCGGGCGTGGCGCATTTTCCAATAGAC (double strand) [TIR-5] | 12.5 µM
CACACACGACGCTTGCACCGCGACATATGTCGGTTTTGCAGACGTGCAGGTT (double strand) [O6-L] | 10.5 µM
33-34 intergenic region wild type (366 bp) | 2.61 µM
TCGGACATGGTGAACGCTTGCGACATATGTCGCCAATGTGTGCATCTTTGCA (double strand) [O55-L] | 8.5 µM
60-61 intergenic region (O61) | 3.4 µM
54-55 intergenic region (O55) | 2.6 µM
5-6 intergenic region (O6) | 2.75 µM
TCCAATAGACGACATATGTCGCT (double strand) [TIR-6] | 9.5 µM
